# Where two headings read alike, the source gives them in different places.
# T1: C-reactive protein (UniProt P02741 19-224)
# T1 sequence: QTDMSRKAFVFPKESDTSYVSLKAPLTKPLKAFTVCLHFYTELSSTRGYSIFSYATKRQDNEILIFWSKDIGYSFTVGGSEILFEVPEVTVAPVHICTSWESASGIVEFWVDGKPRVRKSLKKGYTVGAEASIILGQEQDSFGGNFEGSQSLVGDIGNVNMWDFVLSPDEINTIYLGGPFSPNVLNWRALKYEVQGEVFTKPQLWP
# How the values were obtained:
# C-reactive protein [1] = biological target: T1, C-reactive protein; test: pull-down
# C-reactive protein [2] = biological target: T1, C-reactive protein; test: pull-down; remark: listed apart in the source
binder,measurement,setting,value
MB-P (PDGF-BB sensing aptamer) (structured_DNA) DNA: GATGTCCACGAGGTCTCTGCGGCATCAACAATCTCGAATTTTTTACTCAGGGCACTGCAAGCAATTGTGGTCCCAATGGGCTGAGTATCGTACGCTGCAGGTCGAC,binding result,C-reactive protein [1],no binding
MB-T (thrombin sensing aptamer) (structured_DNA) DNA: GATGTCCACGAGGTCTCTATTGCATTCGCACTTCCGATTTTTTCAGTCCGTGGTAGGGCAGGTTGGGGTGACTCGTACGCTGCAGGTCGAC,binding result,C-reactive protein [2],no binding

# From publication PMC2891049
